Assays:
[1] = cited from earlier work
[2] = Activity of W24F variants on peroxidase substrates, flask culture supernatants; assay type: biochemical; conditions: all the tested substrates, relative to respective parental
Description: (§1) FIG. 5 W24F variants obtained by means of directed mutagenesis. A) Model built on the crystal structure of the AaeUPO1 enzyme (PDB access number: 2YOR), comprising the mutations of the JaWa variant as well as the W24F modification with respect to wild AaeUPO1. The model is shown without a surface, with a transparent surface and with an opaque surface, showing position W24. B) Activity of the W24F variants using different substrates with respect to their respective parentals, relativised to the PaDa-I activity. The experiments were carried out using 100 mL flask culture supernatants.

[3] = Activity of W24F variants on peroxygenase substrates, flask culture supernatants; assay type: biochemical; conditions: relative to respective parental
Description: as §1

## c1ccc2ccccc2c1 [naphthalene]
[1]
  solubility of the naphthalene in water: 31.7 µg/mL

B1: PaDa-I-W24F: W24F variant obtained from the PaDa-I mutant, SEQ ID NO: 30 (protein)
chain: MKYFPLFPTLVYAVGVVAFPDYASLAGLSQQELDAIIPTLEAREPGLPPGPLENSSAKLVNDEAHPFKPLRPGDIRGPCPGLNTLASHGYLPRNGVATPAQIINAVQEGFNFDNQAAIFATYAAHLVDGNLITDLLSIGRKTRLTGPDPPPPASVGGLNEHGTFEGDASMTRGDAFFGNNHDFNETLFEQLVDYSNRFGGGKYNLTVAGELRFKRIQDSIATNPNFSFVDFRFFTAYGETTFPANLFVDGRRDDGQLDMDAARSFFQFSRMPDDFFRAPSPRSGTGVEVVVQAHPMQPGRNVGKINSYTVDPTSSDFSTPCLMYEKFVNITVKSLYPNPTVQLRKALNTNLDFLFQGVAAGCTQVFPYGRD
[2]
  reduction of peroxidase activity by the W24F mutation: 60%
[3]
  reduction in the activity on naphthalene and NBD by the W24F mutation: 50%

B2: JaWa-W24F: W24F variant obtained from the JaWa mutant, SEQ ID NO: 32 (protein)
chain: MKYFPLFPTLVYAVGVVAFPDYASLAGLSQQELDAIIPTLEAREPGLPPGPLENSSAKLVNDEAHPFKPLRPGDIRGPCPGLNTLASHGYLPRNGVATPAQIINAVQEGFNFDNQAAIFATYAAHLVDGNLITDLLSIGRKTRLTGPDPPPPASVGGLNEHGTFEGDASMTRGDAFFGNNHDFNETLFEQLVDYSNRFGGGKYNLTVAGELRFKRIQDSIATNPNFSFVDFRFFTAYGETTFPANLFVDGRRDDGQLDMDAARSFFQFSRMPDDFFRAPSPRSDTGVEVVVQAHPMQPGKNVGKINSYTVDPTSSDFSTPCLMYEKFVNITVKSLYPNPTVQLRKALNTNLDFLFQGVAAGCTQVFPYGRD
[2]
  reduction of peroxidase activity by the W24F mutation: 60%
[3]
  reduction in the activity on naphthalene and NBD by the W24F mutation: 50%

From patent publication US10876098B2, “Polynucleotide, host cell and a method to recombinantly produce the protein encoded by said polynucleotide having peroxygenative activity” (CONSEJO SUPERIOR DE INVESTIGACIONES CIENTIFICAS (CSIC), priority 2015, dated 2020)
